Columns and labels:
Assay in all cases: biochemical
Format in all cases: biochemical
266 human kinases [1] = target: 266 human kinases (Homo sapiens, UniProt P11362, V561M); conditions: FGFR1(V561M)(h); 100 μM
Procedure, shortened: (§1)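 Radiometric filter-binding format: a positively charged substrate takes up radiolabelled phosphate from ATP unless the kinase is inhibited, then is captured on a negatively charged filter membrane. Counts from scintillation are expressed relative to a 100% activity control.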

266 human kinases [2] = target: 266 human kinases (Homo sapiens, UniProt P19784); conditions: CK2α2(h); 100 μM
Chain of 266 human kinases (Homo sapiens, UniProt P19784) (P19784 whole entry): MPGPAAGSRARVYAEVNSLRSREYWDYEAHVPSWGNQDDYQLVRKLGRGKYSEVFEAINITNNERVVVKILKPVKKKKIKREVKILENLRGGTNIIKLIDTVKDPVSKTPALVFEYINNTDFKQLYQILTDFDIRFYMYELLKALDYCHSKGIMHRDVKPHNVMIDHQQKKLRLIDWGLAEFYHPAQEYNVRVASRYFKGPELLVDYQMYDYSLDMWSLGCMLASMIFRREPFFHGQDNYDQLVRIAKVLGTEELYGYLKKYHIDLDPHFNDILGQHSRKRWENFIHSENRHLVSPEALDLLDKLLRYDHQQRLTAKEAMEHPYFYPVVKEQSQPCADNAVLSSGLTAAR
Procedure, shortened: as §1

266 human kinases [3] = target: 266 human kinases (Homo sapiens, UniProt Q9HCP0); conditions: CK1γ1(h); 100 μM
Chain of 266 human kinases (Homo sapiens, UniProt Q9HCP0) (Q9HCP0 whole entry): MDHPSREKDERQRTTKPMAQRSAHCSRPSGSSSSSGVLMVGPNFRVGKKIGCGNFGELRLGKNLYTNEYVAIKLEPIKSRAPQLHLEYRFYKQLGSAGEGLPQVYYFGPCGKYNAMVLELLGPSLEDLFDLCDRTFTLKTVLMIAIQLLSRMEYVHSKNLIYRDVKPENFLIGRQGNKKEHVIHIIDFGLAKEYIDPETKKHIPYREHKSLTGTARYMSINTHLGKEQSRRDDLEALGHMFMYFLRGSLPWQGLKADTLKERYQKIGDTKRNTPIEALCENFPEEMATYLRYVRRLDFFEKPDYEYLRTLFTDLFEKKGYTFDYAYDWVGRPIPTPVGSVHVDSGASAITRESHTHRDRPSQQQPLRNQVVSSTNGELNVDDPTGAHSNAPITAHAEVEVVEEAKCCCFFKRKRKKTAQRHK
Procedure, shortened: as §1

266 human kinases [4] = target: 266 human kinases (Homo sapiens, UniProt O14965); conditions: Aurora-A(h); 100 μM
Chain of 266 human kinases (Homo sapiens, UniProt O14965) (O14965 whole entry): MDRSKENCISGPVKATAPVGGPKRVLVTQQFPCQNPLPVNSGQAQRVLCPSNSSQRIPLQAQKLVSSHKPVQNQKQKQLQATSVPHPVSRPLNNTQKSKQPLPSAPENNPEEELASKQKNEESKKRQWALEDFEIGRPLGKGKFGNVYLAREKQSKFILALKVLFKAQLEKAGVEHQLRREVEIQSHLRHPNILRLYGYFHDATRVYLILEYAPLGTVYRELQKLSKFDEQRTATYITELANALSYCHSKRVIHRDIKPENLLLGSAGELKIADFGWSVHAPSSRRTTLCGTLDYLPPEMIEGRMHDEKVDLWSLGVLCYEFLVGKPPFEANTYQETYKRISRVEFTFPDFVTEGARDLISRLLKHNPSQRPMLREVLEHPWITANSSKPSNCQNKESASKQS
Procedure, shortened: as §1

266 human kinases [5] = target: T1, 266 human kinases (Homo sapiens, UniProt O15146); conditions: MuSK(h); 100 μM
T1 sequence (O15146 24-869): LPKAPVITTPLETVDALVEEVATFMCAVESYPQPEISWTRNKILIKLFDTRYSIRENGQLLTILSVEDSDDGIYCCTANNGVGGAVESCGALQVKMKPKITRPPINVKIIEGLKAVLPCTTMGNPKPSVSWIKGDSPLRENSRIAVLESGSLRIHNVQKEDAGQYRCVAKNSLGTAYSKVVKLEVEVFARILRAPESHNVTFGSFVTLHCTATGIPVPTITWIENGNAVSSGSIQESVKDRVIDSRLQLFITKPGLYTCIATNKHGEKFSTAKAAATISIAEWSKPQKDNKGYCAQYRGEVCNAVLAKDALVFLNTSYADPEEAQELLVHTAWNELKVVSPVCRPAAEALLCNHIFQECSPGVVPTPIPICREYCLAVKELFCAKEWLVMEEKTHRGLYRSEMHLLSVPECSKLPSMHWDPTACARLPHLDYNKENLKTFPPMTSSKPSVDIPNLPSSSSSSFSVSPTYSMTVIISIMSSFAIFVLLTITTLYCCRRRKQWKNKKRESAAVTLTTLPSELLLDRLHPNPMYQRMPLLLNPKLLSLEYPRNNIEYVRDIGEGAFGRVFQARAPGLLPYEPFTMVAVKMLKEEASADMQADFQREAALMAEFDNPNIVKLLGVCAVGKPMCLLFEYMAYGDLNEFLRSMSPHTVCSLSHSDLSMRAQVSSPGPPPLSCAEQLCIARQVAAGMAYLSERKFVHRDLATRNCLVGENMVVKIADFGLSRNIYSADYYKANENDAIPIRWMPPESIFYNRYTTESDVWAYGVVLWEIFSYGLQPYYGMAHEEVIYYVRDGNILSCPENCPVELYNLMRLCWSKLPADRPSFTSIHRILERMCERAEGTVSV
Procedure, shortened: as §1

266 human kinases [6] = target: 266 human kinases (Homo sapiens, UniProt P00519, M351T); conditions: Abl(M351T)(h); 100 μM
Procedure, shortened: as §1

266 human kinases [7] = target: 266 human kinases (Homo sapiens, UniProt P16234, D842V); conditions: PDGFRα(D842V)(h); 100 μM
Procedure, shortened: as §1

266 human kinases [8] = target: 266 human kinases (Homo sapiens, UniProt P35916); conditions: Flt4(h); 100 μM
Chain of 266 human kinases (Homo sapiens, UniProt P35916) (P35916 25-1363): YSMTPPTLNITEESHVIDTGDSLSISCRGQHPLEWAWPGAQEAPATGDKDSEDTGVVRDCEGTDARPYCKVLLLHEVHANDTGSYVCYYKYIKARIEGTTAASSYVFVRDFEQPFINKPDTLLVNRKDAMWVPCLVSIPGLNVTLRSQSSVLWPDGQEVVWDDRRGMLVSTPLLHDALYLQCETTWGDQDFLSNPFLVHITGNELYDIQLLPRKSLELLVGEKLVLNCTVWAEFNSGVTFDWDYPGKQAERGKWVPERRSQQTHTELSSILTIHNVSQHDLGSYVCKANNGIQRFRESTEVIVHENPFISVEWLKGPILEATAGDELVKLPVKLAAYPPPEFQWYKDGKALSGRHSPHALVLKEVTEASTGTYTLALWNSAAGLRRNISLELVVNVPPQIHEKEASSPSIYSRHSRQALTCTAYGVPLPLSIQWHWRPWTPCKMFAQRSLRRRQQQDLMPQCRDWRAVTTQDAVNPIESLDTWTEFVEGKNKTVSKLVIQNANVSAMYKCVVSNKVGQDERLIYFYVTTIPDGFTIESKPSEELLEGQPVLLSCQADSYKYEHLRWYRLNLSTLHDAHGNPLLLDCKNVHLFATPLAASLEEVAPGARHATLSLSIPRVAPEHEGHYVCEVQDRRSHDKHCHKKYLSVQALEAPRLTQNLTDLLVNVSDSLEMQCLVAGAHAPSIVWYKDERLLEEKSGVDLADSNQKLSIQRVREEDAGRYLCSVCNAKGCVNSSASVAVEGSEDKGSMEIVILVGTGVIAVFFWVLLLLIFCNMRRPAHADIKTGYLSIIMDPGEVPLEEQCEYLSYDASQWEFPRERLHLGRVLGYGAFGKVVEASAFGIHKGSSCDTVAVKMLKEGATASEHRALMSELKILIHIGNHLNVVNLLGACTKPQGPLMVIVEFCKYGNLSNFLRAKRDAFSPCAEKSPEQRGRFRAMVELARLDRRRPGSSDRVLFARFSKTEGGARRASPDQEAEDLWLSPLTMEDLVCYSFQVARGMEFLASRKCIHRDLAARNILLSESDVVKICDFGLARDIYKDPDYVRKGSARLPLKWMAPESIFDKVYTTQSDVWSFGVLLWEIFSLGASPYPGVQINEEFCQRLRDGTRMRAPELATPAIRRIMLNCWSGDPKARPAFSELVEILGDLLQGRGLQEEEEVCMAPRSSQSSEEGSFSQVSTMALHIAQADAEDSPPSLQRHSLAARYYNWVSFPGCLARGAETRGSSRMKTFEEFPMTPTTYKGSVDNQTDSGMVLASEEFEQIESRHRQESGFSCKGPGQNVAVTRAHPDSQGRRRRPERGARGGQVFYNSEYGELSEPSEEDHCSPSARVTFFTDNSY
Procedure, shortened: as §1

266 human kinases [9] = target: 266 human kinases (Homo sapiens, UniProt P50750); conditions: CDK9/cyclin T1(h); 100 μM
Procedure, shortened: as §1

266 human kinases [10] = target: 266 human kinases (Homo sapiens, UniProt Q00526); conditions: CDK3/cyclinE(h); 100 μM
Chain of 266 human kinases (Homo sapiens, UniProt Q00526) (Q00526 whole entry): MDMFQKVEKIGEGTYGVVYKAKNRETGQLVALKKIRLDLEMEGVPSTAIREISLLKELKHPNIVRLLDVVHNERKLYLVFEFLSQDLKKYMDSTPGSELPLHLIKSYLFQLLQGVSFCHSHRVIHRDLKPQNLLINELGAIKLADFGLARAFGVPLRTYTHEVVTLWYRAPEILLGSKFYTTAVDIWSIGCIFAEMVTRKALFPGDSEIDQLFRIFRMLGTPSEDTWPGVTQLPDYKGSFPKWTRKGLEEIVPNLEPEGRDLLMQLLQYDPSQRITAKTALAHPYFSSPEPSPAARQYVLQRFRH
Procedure, shortened: as §1

266 human kinases [11] = target: 266 human kinases (Homo sapiens, UniProt Q13464); conditions: ROCK-I(h); 100 μM
Chain of 266 human kinases (Homo sapiens, UniProt Q13464) (Q13464 whole entry): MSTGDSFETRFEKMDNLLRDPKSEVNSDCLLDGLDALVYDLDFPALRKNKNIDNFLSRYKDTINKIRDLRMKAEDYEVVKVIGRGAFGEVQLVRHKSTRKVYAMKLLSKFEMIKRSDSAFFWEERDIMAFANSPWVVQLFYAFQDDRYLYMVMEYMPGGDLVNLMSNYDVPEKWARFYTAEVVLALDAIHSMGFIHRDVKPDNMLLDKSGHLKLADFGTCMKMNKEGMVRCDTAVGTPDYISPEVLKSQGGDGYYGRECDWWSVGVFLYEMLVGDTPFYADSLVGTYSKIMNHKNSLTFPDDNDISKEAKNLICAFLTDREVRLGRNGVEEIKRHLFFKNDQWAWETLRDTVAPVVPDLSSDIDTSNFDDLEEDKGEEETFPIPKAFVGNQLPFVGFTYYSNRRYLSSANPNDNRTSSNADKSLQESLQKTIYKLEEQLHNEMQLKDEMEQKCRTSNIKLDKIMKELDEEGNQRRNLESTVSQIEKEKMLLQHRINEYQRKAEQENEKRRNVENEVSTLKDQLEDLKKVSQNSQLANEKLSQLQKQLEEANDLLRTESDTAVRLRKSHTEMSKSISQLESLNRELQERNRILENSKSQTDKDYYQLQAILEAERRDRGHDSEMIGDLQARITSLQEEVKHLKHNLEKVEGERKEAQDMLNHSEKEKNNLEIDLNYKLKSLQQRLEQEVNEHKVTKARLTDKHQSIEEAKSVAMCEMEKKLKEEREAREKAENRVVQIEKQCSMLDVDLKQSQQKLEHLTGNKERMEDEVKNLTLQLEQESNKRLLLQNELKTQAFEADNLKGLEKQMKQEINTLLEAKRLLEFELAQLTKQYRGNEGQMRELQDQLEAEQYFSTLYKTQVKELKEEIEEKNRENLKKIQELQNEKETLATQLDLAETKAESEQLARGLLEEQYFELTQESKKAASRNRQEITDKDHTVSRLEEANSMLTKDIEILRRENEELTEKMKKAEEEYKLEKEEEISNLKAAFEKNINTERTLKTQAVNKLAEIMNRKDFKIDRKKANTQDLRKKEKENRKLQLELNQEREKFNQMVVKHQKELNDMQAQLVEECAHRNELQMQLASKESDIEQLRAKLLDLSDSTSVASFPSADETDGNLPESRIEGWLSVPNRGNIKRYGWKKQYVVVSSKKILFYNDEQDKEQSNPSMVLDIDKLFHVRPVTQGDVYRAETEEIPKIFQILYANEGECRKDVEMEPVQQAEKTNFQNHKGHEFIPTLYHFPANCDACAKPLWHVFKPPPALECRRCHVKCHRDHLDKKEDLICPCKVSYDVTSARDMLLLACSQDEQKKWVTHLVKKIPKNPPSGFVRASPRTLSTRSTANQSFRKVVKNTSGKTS
Procedure, shortened: as §1

266 human kinases [12] = target: 266 human kinases (Homo sapiens, UniProt Q5VT25); conditions: MRCKα(h); 100 μM
Procedure, shortened: as §1

266 human kinases [13] = target: 266 human kinases (Homo sapiens, UniProt Q9NYY3); conditions: Snk(h); 100 μM
Chain of 266 human kinases (Homo sapiens, UniProt Q9NYY3) (Q9NYY3 whole entry): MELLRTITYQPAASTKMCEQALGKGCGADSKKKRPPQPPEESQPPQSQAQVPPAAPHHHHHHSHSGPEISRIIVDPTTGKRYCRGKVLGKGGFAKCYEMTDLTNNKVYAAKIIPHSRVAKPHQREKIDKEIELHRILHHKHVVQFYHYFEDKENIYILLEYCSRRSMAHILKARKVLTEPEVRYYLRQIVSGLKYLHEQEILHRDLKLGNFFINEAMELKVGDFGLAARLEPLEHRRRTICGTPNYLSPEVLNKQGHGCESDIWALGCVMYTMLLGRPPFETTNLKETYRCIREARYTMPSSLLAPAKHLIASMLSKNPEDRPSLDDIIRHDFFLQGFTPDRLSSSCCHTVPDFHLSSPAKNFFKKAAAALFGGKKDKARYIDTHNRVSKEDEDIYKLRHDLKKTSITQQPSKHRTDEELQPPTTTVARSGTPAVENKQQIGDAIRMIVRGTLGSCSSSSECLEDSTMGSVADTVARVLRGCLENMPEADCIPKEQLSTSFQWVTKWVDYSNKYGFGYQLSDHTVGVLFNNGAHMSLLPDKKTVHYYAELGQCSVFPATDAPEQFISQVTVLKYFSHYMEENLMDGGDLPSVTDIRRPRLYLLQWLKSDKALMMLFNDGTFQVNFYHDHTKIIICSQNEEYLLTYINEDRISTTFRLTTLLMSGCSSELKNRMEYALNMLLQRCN
Procedure, shortened: as §1

266 human kinases [14] = target: 266 human kinases (Homo sapiens, UniProt Q9Y243); conditions: PKBγ(h); 100 μM
Procedure, shortened: as §1

With “YARAAARQARAKALNRQLGVA (mammal) [MMI-0200]” the “% activity” value (266 human kinases [1]) was 72%, the “% activity” value (266 human kinases [2]) was 88% and the “% activity” value (266 human kinases [3]) was 98%.

With “HRRIKAWLKKIKALARQLGVAA (mammal) [MMI-0500]” the “% activity” value (266 human kinases [4]) was 110%, the “% activity” value (266 human kinases [5]) was 27% and the “% activity” value (266 human kinases [6]) was 61%. The “% activity” value (266 human kinases [7]) was 170%, the “% activity” value (266 human kinases [8]) was 73% and the “% activity” value (266 human kinases [9]) was 6%. The “% activity” value (266 human kinases [10]) was 8%, the “% activity” value (266 human kinases [11]) was 17% and the “% activity” value (266 human kinases [12]) was 5%. For the same sequence, the “% activity” value (266 human kinases [13]) was 122% and the “% activity” value (266 human kinases [14]) was 20%.

From patent US20140072613A1, “Compositions and Methods for Treating Cutaneous Scarring” (priority 2012, published 2014)
